Measurements: PMC11203719, “Mts1 (S100A4) and Its Peptide Demonstrate Cytotoxic Activity in Complex with Tag7 (PGLYRP1) Peptide” (International Journal of Molecular Sciences, 2024)

Target: Mts1 (S100A4) protein, recombinant human (human) (UniProt P26447)
Experiment: MST; Mts1 labelled with Alexa Fluor 633 (200 nM), preincubated 20 min in the dark at room temperature with 16 concentrations of Tag7 or peptide; Monolith NT.115, 10% IR laser power; apparent Kd

Mts1 (S100A4) protein, recombinant human (human), sequence (P26447 whole entry): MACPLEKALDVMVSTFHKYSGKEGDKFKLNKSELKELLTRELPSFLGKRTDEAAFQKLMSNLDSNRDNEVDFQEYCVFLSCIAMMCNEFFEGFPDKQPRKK

Kd: 9.21 µM
Substance: Tag7 (PGLYRP1) protein, recombinant (from UniProt O88593 19-182) (natural protein)
